# Columns and labels:
# Assay in all cases: purified protein
# Conditions in all cases: co-substrate GTP
# [1] = tested on: CO[C@@H]1[C@@H](OP(=O)(O)O)O[C@H](CO)[C@@H](O)[C@@H]1O
# Excerpt: (§1) colorimetric pyrophosphate detection assay on GDP-mannose pyrophosphorylase (GDP-ManPP)
# [2] = tested on: CO[C@@H]1[C@H](O)[C@@H](OP(=O)(O)O)O[C@H](CO)[C@H]1O
# Excerpt: as §1
# [3] = tested on: CO[C@H]1[C@H](O)[C@H](O)[C@@H](OP(=O)(O)O)O[C@@H]1CO
# Excerpt: as §1
# [4] = tested on: COC[C@H]1O[C@H](OP(=O)(O)O)[C@@H](O)[C@@H](O)[C@@H]1O
# Excerpt: as §1
# [5] = tested on: C[C@H]1O[C@H](OP(=O)(O)O)[C@@H](O)[C@@H](O)[C@@H]1O
# Excerpt: as §1
# [6] = tested on: O=P(O)(O)O[C@H]1O[C@H](CO)[C@@H](O)[C@H](O)[C@@H]1O
# Excerpt: as §1
substance,measurement,setting,value
GDP-mannose pyrophosphorylase (GDP-ManPP) (Salmonella enterica subsp. enterica serovar Typhimurium str. LT2),Km,[1],4000 ± 1100 µM
same,kcat,[1],1.17 ± 0.183 s⁻¹
same,kcat/Km,[1],333 ± 167 M⁻¹ s⁻¹
same,Km,[2],200 ± 72 µM
same,kcat,[2],0.0867 ± 0.0117 s⁻¹
same,kcat/Km,[2],433 ± 16.7 M⁻¹ s⁻¹
same,Km,[3],3400 ± 870 µM
same,kcat,[3],0.517 ± 0.0783 s⁻¹
same,kcat/Km,[3],150 ± 83.3 M⁻¹ s⁻¹
same,Km,[4],120 ± 18 µM
same,kcat,[4],0.45 ± 0.0167 s⁻¹
same,kcat/Km,[4],3830 ± 1000 M⁻¹ s⁻¹
same,Km,[5],70 ± 13 µM
same,kcat,[5],5 ± 0.217 s⁻¹
same,kcat/Km,[5],66700 ± 16700 M⁻¹ s⁻¹
same,Km,[6],40 ± 6 µM
same,kcat,[6],6 ± 0.267 s⁻¹
same,kcat/Km,[6],150000 ± 50000 M⁻¹ s⁻¹
